The target in the assay is soluble form of human TNFα (aa 77–233), wild-type (human). The assay can be described thus: crystal structure; purified TNFα and certolizumab Fab mixed in a 1:1 molar ratio, complex isolated by size exclusion chromatography (20 mM Tris pH 8.0, 300 mM NaCl); hanging-drop crystals at 20 °C; 2.89 Å, three copies in the asymmetric unit. (SEC sorts molecules by how far they enter the pores of the column.)

This is an account of results in paper PMC5297857.

Usually stoichiometry N stands for a count of units in the complex or per binding partner.

“soluble form of human TNFα (aa 77–233), wild-type (ligand)”: the stoichiometry N is 3.
